From patent publication US20210009975A1 (UNIVERSITY OF GEORGIA RESEARCH FOUNDATION, published 2021)
Numbering of substitutions follows the chain as printed. Names and notes keep the numbering of the source.

Legend:
fetuin [1] = molecular target: fetuin (UniProt P12763)
[2] = molecular target: 3'-sialyllactose-BSA (bovine)
[3] = molecular target: 3'-sialyllactose-BSA (bovine); assay: LAC, Sia-3S1 column, 50 µg loaded, 10 mM EPPS pH 7.5 with 110 mM NaCl
[4] = molecular target: 3'-sialyllactose-BSA (bovine); assay: LAC, Sia-3S1 column, 100 µg loaded
fetuin [5] = molecular target: fetuin (UniProt P12763); assay: LAC, Sia-3S1 coupled to Sepharose column, 100 µg fetuin loaded
[6] = molecular target: proteins of MCF7 cell-free extract; assay: LAC, Sia-PS1 column, elution with 3′SL and 6′SL
[7] = molecular target: proteins of MCF7 cell-free extract; assay: LAC, Sia-PS1 column, about 1.5 mg MCF7 proteins circulated at 4 °C overnight
[8] = molecular target: proteins of MCF7 cell-free extract; assay: LAC, Sia-PS1 column, approximately 500 µg CFE loaded
asialofetuin = molecular target: T1, asialofetuin (UniProt P12763 19-359, de-sialylated glycans); assay: Western blot, Sia-3S1 as probe, anti-poly-His-HRP detection
T1 construct: also called de-sialylated fetuin
T1 sequence: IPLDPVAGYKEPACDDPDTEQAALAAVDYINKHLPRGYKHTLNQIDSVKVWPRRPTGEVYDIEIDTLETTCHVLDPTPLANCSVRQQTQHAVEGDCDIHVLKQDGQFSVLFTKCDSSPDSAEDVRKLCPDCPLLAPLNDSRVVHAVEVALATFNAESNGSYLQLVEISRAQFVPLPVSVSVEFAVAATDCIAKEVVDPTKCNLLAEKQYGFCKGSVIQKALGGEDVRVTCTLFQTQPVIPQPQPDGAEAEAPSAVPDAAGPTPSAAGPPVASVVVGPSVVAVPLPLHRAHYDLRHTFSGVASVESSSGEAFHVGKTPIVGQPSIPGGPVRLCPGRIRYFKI

horseradish peroxidase = molecular target: T2, horseradish peroxidase (horseradish, UniProt P00433 31-338); assay: Lectenz affinity chromatography (LAC), Sia-PS1 coupled to Sepharose column
T2 construct: also called HRP
T2 sequence: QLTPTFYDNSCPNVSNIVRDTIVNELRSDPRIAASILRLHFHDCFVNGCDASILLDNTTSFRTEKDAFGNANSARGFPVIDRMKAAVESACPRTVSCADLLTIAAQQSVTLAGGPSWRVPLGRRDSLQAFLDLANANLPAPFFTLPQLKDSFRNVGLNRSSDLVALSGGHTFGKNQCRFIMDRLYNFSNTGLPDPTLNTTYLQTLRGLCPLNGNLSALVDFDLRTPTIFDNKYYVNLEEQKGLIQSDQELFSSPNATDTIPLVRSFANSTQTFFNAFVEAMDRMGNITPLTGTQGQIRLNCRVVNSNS

Sequence of 3'-sialyllactose-BSA (bovine) (P02769 25-607 limits assumed): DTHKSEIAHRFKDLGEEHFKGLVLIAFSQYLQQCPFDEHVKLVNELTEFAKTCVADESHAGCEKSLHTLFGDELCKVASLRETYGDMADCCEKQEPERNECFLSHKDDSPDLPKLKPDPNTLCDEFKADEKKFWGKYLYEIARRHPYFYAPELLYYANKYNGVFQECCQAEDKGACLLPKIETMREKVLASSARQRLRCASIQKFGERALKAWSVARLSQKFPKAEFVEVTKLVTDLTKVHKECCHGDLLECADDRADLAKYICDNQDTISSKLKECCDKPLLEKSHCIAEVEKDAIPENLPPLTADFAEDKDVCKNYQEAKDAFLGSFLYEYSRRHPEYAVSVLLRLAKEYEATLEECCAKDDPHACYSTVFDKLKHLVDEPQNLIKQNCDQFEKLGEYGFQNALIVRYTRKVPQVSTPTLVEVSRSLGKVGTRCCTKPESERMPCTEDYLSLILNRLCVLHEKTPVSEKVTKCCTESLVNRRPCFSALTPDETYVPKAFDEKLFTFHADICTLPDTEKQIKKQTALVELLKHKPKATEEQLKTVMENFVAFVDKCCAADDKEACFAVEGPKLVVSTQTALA

“Sia-3S1 Lectenz (NanB residues 30-697 with R193A, D270Q, A538V, E541D) (designed binder)” was tested, and the percent of bound fetuin competitively eluted by 3′SL (fetuin [1]) was 100%, the percent of bound fetuin competitively eluted by 6′SL (fetuin [1]) was 50% and the 3'SL-BSA Elution (amount of bound 3'SL-BSA eluted from the column) [2] was 45 µg. The amount that did not bind to the column [3] was 5 µg, the amount in flow through [4] was 5 µg and the amount bound to the column (fetuin [5]) was 85 µg.

For “Sia-PS1 Lectenz (NanB residues 30-697 with Y653F) (designed binder)”, the percent of total proteins bound to the column [6] was 10%, the amount of protein in eluted peak [7] was 207 µg and the percent of loaded proteins in eluted peak [7] was 13.8%. The amount of bound proteins (elution peak) [8] was 30 µg and the amount of unbound proteins (flow-through peak) [8] was 319 µg.

B1: Sia-3S1 Lectenz (NanB residues 30-697 with R193A, D270Q, A538V, E541D) (designed binder)
chain: NELNYGQLSISPIFQGGSYQLNNKSIDISSLLLDKLSGESQTVVMKFKADKPNSLQALFGLSNSKAGFKNNYFSIFMRDSGEIGVEIRDAQKGINYLFSRPASLWGKHKGQAVENTLVFVSDSKDKTYTMYVNGIEVFSETVDTFLPISNINGIDKATLGAVNAEGKEHYLAKGSIDEISLFNKAISDQEVSTIPLSNPFQLIFQSGDSTQANYFRIPTLYTLSSGRVLSSIDARYGGTHQSKSKINIATSYSDDNGKTWSEPIFAMKFNDYEEQLVYWPRDNKLKNSQISGSASFIDSSIVEDKKSGKTILLADVMPAGIGNNNANKADSGFKEINGHYYLKLKKNGDNDFRYTVRENGVVYNETTNKPTNYTINDKYEVLEGGKSLTVEQYSVDFDSGSLRERHNGKQVPMNVFYKDSLFKVTPTNYIAMTTSQNRGESWEQFKLLPPFLGEKHNGTYLCPGQGLALKSSNRLIFATYTSGELTYLISDDSGQTWKKSSASIPFKNVTADAQMVELRDGVIRTFFRTTTGKIAYMTSRDSGETWSKVSYIDGIQQTSYGTQVSAIKYSQLIDGKEAVILSTPNSRSGRKGGQLVVGLVNKEDDSIDWKYHYDIDLPSYGYAYSAITELPNHHIGVLFEKYDSWSRNELHLSNVVQYIDLEINDLTK
notes: also called Sia-31 [sic]; not shown: N-terminal hexa-histidine tag
B1: no binding (tested: 1 µM) (asialofetuin).

B2: Sia-PS1 Lectenz (NanB residues 30-697 with Y653F) (designed binder)
chain: B1 chain with A164R, Q241D, V509A, D512E, Y624F
B2: no binding (horseradish peroxidase).
